Positions count from the first letter of the chain named. In names and notes the source's numbering stands.
Experiments:
[1] = molecular target: T1, MeOXC (OXC, oxalyl-CoA decarboxylase) (Methylorubrum extorquens, UniProt C5AX46, E135G/A415C/Y497F/S568G); assay: X-ray crystal structure, […] Å; format: binding; details: MeOXC4; Mg2+; C-terminus beyond E567 modelled
T1 construct: gene MexAM1_META1p0990; recombinant, produced in E. coli; purified; homotetramer; ThDP and Mg2+ dependent
Excerpt: Substitution E135G gave rise to a cavity in the ThDP binding pocket

[2] = molecular target: T2, MeOXC (OXC, oxalyl-CoA decarboxylase) (Methylorubrum extorquens, UniProt C5AX46); assay: X-ray crystal structure, […] Å; format: binding; details: Mg2+; C-terminal 16 residues modelled
T2 construct: gene MexAM1_META1p0990; recombinant, produced in E. coli; purified; homotetramer; ThDP and Mg2+ dependent
T2 sequence (C5AX46 entry or part of it): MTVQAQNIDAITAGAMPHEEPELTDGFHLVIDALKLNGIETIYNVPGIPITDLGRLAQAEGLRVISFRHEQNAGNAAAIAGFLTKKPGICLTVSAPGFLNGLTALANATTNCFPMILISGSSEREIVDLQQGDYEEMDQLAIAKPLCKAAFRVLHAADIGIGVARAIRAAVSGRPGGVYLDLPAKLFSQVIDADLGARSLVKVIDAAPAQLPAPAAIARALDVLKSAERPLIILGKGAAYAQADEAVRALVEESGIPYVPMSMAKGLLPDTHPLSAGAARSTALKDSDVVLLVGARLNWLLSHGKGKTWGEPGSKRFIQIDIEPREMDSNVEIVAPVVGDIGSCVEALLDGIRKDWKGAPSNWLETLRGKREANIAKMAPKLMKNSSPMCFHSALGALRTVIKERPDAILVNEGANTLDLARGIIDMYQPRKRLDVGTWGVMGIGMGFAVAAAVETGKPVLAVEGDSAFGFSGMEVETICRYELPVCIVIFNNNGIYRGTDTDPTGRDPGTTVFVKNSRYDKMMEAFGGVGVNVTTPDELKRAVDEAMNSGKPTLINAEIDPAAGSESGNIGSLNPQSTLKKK

[3] = substrate: CC(C)(COP(=O)(O)OP(=O)(O)OC[C@H]1O[C@@H](n2cnc3c(N)ncnc32)[C@H](O)[C@@H]1OP(=O)(O)O)[C@@H](O)C(=O)NCCC(=O)NCCSC(=O)CO; assay: CoA transfer from glycolyl-CoA to formate, Michaelis-Menten; format: biochemical, Clostridium aminobutyricum; details: formate 25 mM as acceptor
Excerpt: CoA transfer from glycolyl-CoA to formate, Michaelis-Menten on AbfT (4-hydroxybutyrate CoA-transferase) | AbfT).

[4] = substrate: CC(C)(COP(=O)(O)OP(=O)(O)OC[C@H]1O[C@@H](n2cnc3c(N)ncnc32)[C@H](O)[C@@H]1OP(=O)(O)O)[C@@H](O)C(=O)NCCC(=O)NCCSC(=O)C(=O)O; assay: oxalyl-CoA decarboxylation kinetics; format: biochemical, Methylorubrum extorquens; details: MeOXC4
[5] = substrate: CC(C)(COP(=O)(O)OP(=O)(O)OC[C@H]1O[C@@H](n2cnc3c(N)ncnc32)[C@H](O)[C@@H]1OP(=O)(O)O)[C@@H](O)C(=O)NCCC(=O)NCCSC=O; assay: steady-state kinetics, glycolyl-CoA synthase (carboligation) activity; format: biochemical, Methylorubrum extorquens; details: co-substrate formaldehyde, apparent
Excerpt: (§1) steady-state kinetics, glycolyl-CoA synthase (carboligation) activity on MeOXC (OXC, oxalyl-CoA decarboxylase)

[6] = substrate: C=O; assay: as above; format: biochemical, Methylorubrum extorquens; details: co-substrate formyl-CoA, apparent
Excerpt: as §1

With `Cc1ncc(C[n+]2csc(CCOP(=O)(O)OP(=O)(O)O)c2C)c(N)n1` [ThDP] the “X-ray crystal structure, 2.4 Å” value [1] was “Active site of MeOXC4. Substitution E135G gave rise to a cavity in the ThDP binding pocket” and the “X-ray crystal structure, 1.9 Å” value [2] was “The overall structure of MeOXC with bound ThDP (orange)”.

B1: AbfT (4-hydroxybutyrate CoA-transferase) (Clostridium aminobutyricum) (protein)
chain: MDWKKIYEDRTCTADEAVKSIKSGDRVLFAHCVAEPPVLVEAMVANAAAYKNVTVSHMVTLGKGEYSKPEYKENFTFEGWFTSPSTRGSIAEGHGQFVPVFFHEVPSLIRKDIFHVDVFMVMVSPPDHNGFCCVGVSSDYTMQAIKSAKIVLAEVNDQVPVVYGDTFVHVSEIDKFVETSHPLPEIGLPKIGEVEAAIGKHCASLIEDGSTLQLGIGAIPDAVLSQLKDKKHLGIHSEMISDGVVDLYEAGVIDCSQKSIDKGKMAITFLMGTKRLYDFAANNPKVELKPVDYINHPSVVAQCSKMVCINACLQVDFMGQIVSDSIGTKQFSGVGGQVDFVRGASMSIDGKGKAIIAMPSVAKKKDGSMISKIVPFIDHGAAVTTSRNDADYVVTEYGIAEMKGKSLQDRARALINIAHPDFKDELKAEFEKRFNAAF
notes: purified
B1 gave a Km [3] of 12 ± 1 µM and a kcat [3] of 0.40 ± 0.01 s^–1.

B2: MeOXC (OXC, oxalyl-CoA decarboxylase) (Methylorubrum extorquens AM1; A415C/E135G/S568G/Y497F) (protein)
chain: MTVQAQNIDAITAGAMPHEEPELTDGFHLVIDALKLNGIETIYNVPGIPITDLGRLAQAEGLRVISFRHEQNAGNAAAIAGFLTKKPGICLTVSAPGFLNGLTALANATTNCFPMILISGSSEREIVDLQQGDYGEMDQLAIAKPLCKAAFRVLHAADIGIGVARAIRAAVSGRPGGVYLDLPAKLFSQVIDADLGARSLVKVIDAAPAQLPAPAAIARALDVLKSAERPLIILGKGAAYAQADEAVRALVEESGIPYVPMSMAKGLLPDTHPLSAGAARSTALKDSDVVLLVGARLNWLLSHGKGKTWGEPGSKRFIQIDIEPREMDSNVEIVAPVVGDIGSCVEALLDGIRKDWKGAPSNWLETLRGKREANIAKMAPKLMKNSSPMCFHSALGALRTVIKERPDAILVNEGCNTLDLARGIIDMYQPRKRLDVGTWGVMGIGMGFAVAAAVETGKPVLAVEGDSAFGFSGMEVETICRYELPVCIVIFNNNGIFRGTDTDPTGRDPGTTVFVKNSRYDKMMEAFGGVGVNVTTPDELKRAVDEAMNSGKPTLINAEIDPAAGSEGGNIGSLNPQSTLKKK
notes: recombinant, produced in E. coli; purified; homotetramer; ThDP and Mg2+ dependent
B2 gave a Km [4] of 122 ± 16 µM, a kcat [4] of 0.21 ± 0.01 s^–1 and a Km ([5]; MeOXC4) of 220 ± 30 µM. The kcat ([5]; MeOXC4) was 2.4 ± 0.2 s⁻¹, the kcat/Km ([5]; MeOXC4) was 11000 M⁻¹ s⁻¹ and the Km ([6]; MeOXC4) was 5000 ± 1000 µM. For the same molecule, the kcat ([6]; MeOXC4) was 2 ± 0.2 s⁻¹ and the kcat/Km ([6]; MeOXC4) was 400 M⁻¹ s⁻¹.

B3: MeOXC (OXC, oxalyl-CoA decarboxylase) (Methylorubrum extorquens AM1) (protein)
chain: B2 chain with G135E, C415A, F497Y, G568S
notes: as for B2
B3 showed a Km ([5]; concentrations in Table S4) of 3000 ± 2000 µM, a kcat ([5]; concentrations in Table S4) of 0.31 ± 0.08 s⁻¹ and a kcat/Km ([5]; concentrations in Table S4) of 100 M⁻¹ s⁻¹. It also gave a Km ([6]; concentrations in Table S4) of 100000 ± 20000 µM, a kcat ([6]; concentrations in Table S4) of 0.2 ± 0.01 s⁻¹ and a kcat/Km ([6]; concentrations in Table S4) of 2 M⁻¹ s⁻¹.

B4: MeOXC (OXC, oxalyl-CoA decarboxylase) (Methylorubrum extorquens AM1; A415C) (protein)
chain: B2 chain with G135E, F497Y, G568S
notes: as for B2
B4 showed a Km ([5]; MeOXC1) of 160 ± 50 µM, a kcat ([5]; MeOXC1) of 0.23 ± 0.01 s⁻¹ and a kcat/Km ([5]; MeOXC1) of 1400 M⁻¹ s⁻¹. It also gave a Km ([6]; MeOXC1) of 30000 ± 2000 µM, a kcat ([6]; MeOXC1) of 0.34 ± 0.01 s⁻¹ and a kcat/Km ([6]; MeOXC1) of 10 M⁻¹ s⁻¹.

B5: MeOXC (OXC, oxalyl-CoA decarboxylase) (Methylorubrum extorquens AM1; A415C/S568G) (protein)
chain: B2 chain with G135E, F497Y
notes: as for B2
B5 was tested, and the Km ([5]; MeOXC2) was 90 ± 20 µM, the kcat ([5]; MeOXC2) was 0.43 ± 0.02 s⁻¹ and the kcat/Km ([5]; MeOXC2) was 5100 M⁻¹ s⁻¹. For the same molecule, the Km ([6]; MeOXC2) was 12000 ± 3000 µM, the kcat ([6]; MeOXC2) was 0.57 ± 0.05 s⁻¹ and the kcat/Km ([6]; MeOXC2) was 50 M⁻¹ s⁻¹.

B6: MeOXC (OXC, oxalyl-CoA decarboxylase) (Methylorubrum extorquens AM1; A415C/E135G/S568G) (protein)
chain: B2 chain with F497Y
notes: as for B2
B6 was tested, and the Km ([5]; MeOXC3) was 170 ± 40 µM, the kcat ([5]; MeOXC3) was 1.6 ± 0.1 s⁻¹ and the kcat/Km ([5]; MeOXC3) was 9400 M⁻¹ s⁻¹. The Km ([6]; MeOXC3) was 12000 ± 3000 µM, the kcat ([6]; MeOXC3) was 1.6 ± 0.1 s⁻¹ and the kcat/Km ([6]; MeOXC3) was 130 M⁻¹ s⁻¹.
